According to publication PMC10349056, “The combined action of the intracellular regions regulates FGFR2 kinase activity” (Communications Biology, 2023):
Where no end group is shown, it is not given here.

Tests used:
Assay in all cases: MST; JM labelled with Atto 488, serial dilutions of KD titrated, 25 °C; 20 mM HEPES, 150 mM NaCl, 1 mM TCEP, 0.01% Tween 20, pH 7.5; the text calls the constant of KD^pY1 apparent (Kd,app)
Conditions in all cases: both partners purified
[1] = target: T1, FGFR2 kinase domain, phosphorylation state pY5 (UniProt P21802-3 465-764, Y734F (worked out from the printed order of phosphorylation), phosphotyrosine at 657, 587, 467, 589 and 658)
T1 construct: FGFR2 (IIIb isoform) kinase domain, residues 465-764; numbers count on: FGFR2IIIb (C1 isoform, 822 residues); also called KD^pY5; source: E. coli BL21(DE3), purified (Talon, Superdex 75)
T1 sequence (P21802 464-763 Y733F): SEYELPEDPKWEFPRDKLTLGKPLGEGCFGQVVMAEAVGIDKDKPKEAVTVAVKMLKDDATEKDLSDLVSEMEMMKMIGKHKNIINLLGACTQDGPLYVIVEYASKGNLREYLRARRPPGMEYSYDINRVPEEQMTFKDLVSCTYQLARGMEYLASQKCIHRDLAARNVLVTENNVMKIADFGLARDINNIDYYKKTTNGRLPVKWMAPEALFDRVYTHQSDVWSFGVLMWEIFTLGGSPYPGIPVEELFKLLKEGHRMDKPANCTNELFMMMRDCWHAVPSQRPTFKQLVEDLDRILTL

[2] = target: T2, FGFR2 kinase domain, phosphorylation state pY2 (UniProt P21802-3 465-764, Y467F (worked out from the printed order of phosphorylation) | Y589F (worked …, phosphotyrosine at 657 and 587))
T2 construct: FGFR2 (IIIb isoform) kinase domain, residues 465-764; numbers count on: FGFR2IIIb (C1 isoform, 822 residues); also called KD^pY2; source: E. coli BL21(DE3), purified (Talon, Superdex 75)
T2 sequence (P21802 464-763 Y466F/Y588F/Y657F/Y733F): as the sequence (P21802 464-763 Y733F) above, with Y3F, Y125F, Y194F counted along it

[3] = target: T3, FGFR2 kinase domain K518I (catalytically inactive, non-phosphorylatable) (UniProt P21802-3 465-764, K518I)
T3 construct: FGFR2 (IIIb isoform) kinase domain, residues 465-764; numbers count on: FGFR2IIIb (C1 isoform, 822 residues); also called KD^K518I; source: E. coli BL21(DE3), purified (Talon, Superdex 75)
T3 sequence (P21802 464-763 K517I): as the sequence (P21802 464-763 Y733F) above, with K54I, F270Y counted along it

[4] = target: T4, FGFR2 kinase domain, phosphorylation state pY4 (UniProt P21802-3 465-764, Y658F (worked out from the printed order of phosphorylation) | Y734F (worked …, phosphotyrosine at 657, 587, 467 and 589))
T4 construct: FGFR2 (IIIb isoform) kinase domain, residues 465-764; numbers count on: FGFR2IIIb (C1 isoform, 822 residues); also called KD^pY4; source: E. coli BL21(DE3), purified (Talon, Superdex 75)
T4 sequence (P21802 464-763 Y657F/Y733F): as the sequence (P21802 464-763 Y733F) above, with Y194F counted along it

- Kd [1]: 22.5 ± 1.8 µM
- Kd [2]: 6.98 ± 0.877 µM
- Kd [3]: 13.4 ± 0.994 µM
- Kd [4]: 10.2 ± 1.33 µM
B1: FGFR2 juxtamembrane region (407-462), labelled with Atto 488 (peptide, UniProt P21802-3 407-462, looked up)
chain: KPDFSSQPAVHKLTKRIPLRRQVTVSAESSSSMNSNTPLVRITTRLSSTADTPMLA
modifications: also: labelled with Atto 488
notes: FGFR2 (IIIb isoform) juxtamembrane region, residues 407-462; numbers count on: FGFR2IIIb (C1 isoform, 822 residues); also called JM; 407Juxtamembrane region462; source: synthetic peptide, bought: Genscript
